First the molecules themselves.
B1: 6G heavy chain variant 7D (N101C) (antibody, V domains shown)
VH: QVQLVQSGAEVKKPGASVKVSCKASGYTFTTYAIHWVRQAPGQGLEWMGFTSPYSGVSNYNQKFKGRVTMTRDTSTSTVYMELSSLRSEDTAVYYCARFDCYDRGYVRDYWGQGTLVTVS
VL: DIVMTQSPDSLAVSLGERATINCRASESVDNDRISFLNWYQQKPGQPPKLLIYAATKQGTGVPDRFSGSGSGTDFTLTISSLQAEDVAVYYCQQSKEFPWSFGGGTKVEIKR
B2: 6G light chain variant 10E (S95L) (antibody, V domains shown)
VH: B1 VH with C101N
VL: B1 VL with S95L
B3: 6G light chain variant 5B (Q94G) (antibody, V domains shown)
VH: B1 VH with C101N
VL: B1 VL with Q94G
B4: 6G light chain variant 7E (Q94R) (antibody, V domains shown)
VH: B1 VH with C101N
VL: B1 VL with Q94R
B5: 6G light chain variant 6E (E97P) (antibody, V domains shown)
VH: B1 VH with C101N
VL: B1 VL with E97P
B6: 6G light chain variant 7F (Q94K) (antibody, V domains shown)
VH: B1 VH with C101N
VL: B1 VL with Q94K
B7: 6G heavy chain variant 8H (N101H) (antibody, V domains shown)
VH: B1 VH with C101H
VL: B1 VL
B8: 6G heavy chain variant 9E (N101R) (antibody, V domains shown)
VH: B1 VH with C101R
VL: B1 VL

Substitutions are numbered along the chain they refer to. Names may count otherwise.

Experimental findings from US20090022728A1 are described below.

The target in the first assay is Aβ1-42 peptide. Kind of assay: ELISA, nonbiotinylated peptide on plate. Background: An ELISA detects its analyte on a solid surface through an enzyme-linked reagent.
Sequence of Aβ1-42 peptide (peptide, as listed by the source): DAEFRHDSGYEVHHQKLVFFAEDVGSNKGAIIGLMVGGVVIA
On to B1, for which the A450 ELISA was 0.31 A450. B2: the A450 ELISA was determined as 0.12 A450.

The molecule B3 had an A450 ELISA of 0.14 A450. As to B4, the A450 ELISA worked out at 0.18 A450. Still for that read-out and setting: under B5 stands 0.2 A450; under B6, 0.19 A450.

The target in another assay is Aβ1-40 peptide. Kind of assay: ELISA, nonbiotinylated peptide on plate.
Sequence of Aβ1-40 peptide (peptide, as listed by the source): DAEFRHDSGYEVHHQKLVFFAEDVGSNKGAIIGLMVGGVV
Molecule B1 registered an A450 ELISA of 0.23 A450. As to B7, the A450 ELISA worked out at 0.21 A450. In the case of B8, the A450 ELISA is 0.22 A450.
